Laboratory results from US20080044423A1 (AstraZeneca / MedImmune, published 2008).
Read-outs that look alike come from different tables or passages of the source.

T1: cynomolgus IL-17A (cynomolgus, UniProt Q16552 24-155 (human entry), limits assumed)
T1 chain: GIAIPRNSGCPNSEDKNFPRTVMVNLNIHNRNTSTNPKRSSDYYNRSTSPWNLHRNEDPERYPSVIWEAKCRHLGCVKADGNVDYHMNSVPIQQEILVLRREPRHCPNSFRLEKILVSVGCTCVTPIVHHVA


What was measured:
Antibody 2 IgG1 = target: T2, Antibody 2 IgG1; assay: HTRF epitope competition vs HIS FLAG IL-17A binding the IgG
T2 construct: human IgG1, lambda; constant regions not in the listing; also called Antibody 02

[1] = target: T3, Biosource mAb (reference anti-IL-17 mAb); assay: as above
T3 construct: murine (detected with anti-murine Fc)

[2] = target: human IL-17A receptor on HT1080 cells (human); assay: cell-based or functional assay
cynomolgus IL-17A [3] = target: T1, cynomolgus IL-17A; assay: cell-based or functional assay
[4] = target: T4, human IL-17A derived from the HEK-EBNA expression system (human, UniProt Q16552 24-155); assay: cell-based or functional assay
[5] = target: T5, human IL-17A, untagged, E. coli derived (in house or Peprotech) (human, UniProt Q16552 24-155); assay: cell-based or functional assay
[6] = target: T5, human IL-17A, untagged, E. coli derived …; assay: cell-based or functional assay; remark: listed apart in the source
[7] = target: T5, human IL-17A, untagged, E. coli derived …; assay: cell-based or functional assay; remark: listed apart in the source
[8] = target: T5, human IL-17A, untagged, E. coli derived …; assay: cell-based or functional assay; remark: listed apart in the source
[9] = target: T4, human IL-17A derived from the HEK-EBNA …; assay: estimated from pA2 (Schild) analysis in the HT1080 IL-6 release assay
[10] = target: T5, human IL-17A, untagged, E. coli derived …; assay: SPR BIAcore 2000; IgG1 amine-coupled on CM3, IL-17A 0.78-50 nM as analyte; 1:1 Langmuir fit
cynomolgus IL-17A [11] = target: T1, cynomolgus IL-17A; assay: as above
[12] = target: T6, Human IL-17A-Flag-His10 (HEK) (human, UniProt Q16552 24-155); assay: as above
T6 construct: may be the same protein as the HIS FLAG IL-17A; not shown: Flag-His10 tag

[13] = target: T5, human IL-17A, untagged, E. coli derived …; assay: SPR BIAcore 2000; IgG1 amine-coupled on CM3, IL-17A 0.78-50 nM as analyte; Bivalent Analyte fit (kd1/ka1)
cynomolgus IL-17A [14] = target: T1, cynomolgus IL-17A; assay: as above
[15] = target: T7, HIS FLAG tagged human IL-17A (in house HEK EBNA derived) (human, UniProt Q16552 24-155); assay: HTRF receptor-ligand assay: inhibition of HIS FLAG IL-17A binding IL-17RA Fc
T7 construct: glycosylated, from HEK EBNA cells; also called HIS FLAG IL-17A; HIS FLAG human IL-17A; not shown: HIS FLAG tag

[16] = target: T7, HIS FLAG tagged human IL-17A (in house …); assay: as above; remark: listed apart in the source
[17] = target: T7, HIS FLAG tagged human IL-17A (in house …); assay: HTRF receptor-ligand assay: inhibition of HIS FLAG IL-17A binding IL-17RA Fc; scFv, non-germlined sequence

T2 sequence (VH, as listed by the source): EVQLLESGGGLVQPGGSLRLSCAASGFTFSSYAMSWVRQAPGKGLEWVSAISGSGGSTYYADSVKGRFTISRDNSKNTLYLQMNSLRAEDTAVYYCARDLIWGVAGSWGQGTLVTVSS

| Binder | HT1080 IL-6 release, IgG IC50 (cynomolgus IL-17A [3]) [nM] | HT1080 IL-6 release, IgG IC50 [4] [nM] | IC50 [16] [nM] | Fold difference in cross-reactivity (IgG) (cynomolgus IL-17A [3]) [fold] | HT1080 IL-6 release, scFv IC50 (cynomolgus IL-17A [3]) [nM] | HT1080 IL-6 release, scFv IC50 [4] [nM] | further results |
| --- | --- | --- | --- | --- | --- | --- | --- |
| dog IL-17A (in house E. Coli derived) (ligand) GIAFPQNPGCRNTEDKNFPQHVKVNLNILNRNTNSRRPSDYYNRSTSPWNLHRNEDPERYPSVIWEAKCRHLGCVNNEGNINYHMNSVPIQQEILVLRRESQHCPHSFRLEKMLVAVGCTCVTPIVRHVA | – | – | – | – | – | – | IC50 (Antibody 2 IgG1): 34 nM; IC50 [1]: 50 nM |
| Mutant IL-17A (L74Q, G75R, I77V, D80E, N82K, V83L, Y85H) with C-terminal His tag (HEK/EBNA) (ligand) GITIPRNPGCPNSEDKNFPRTVMVNLNIHNRNTNTNPKRSSDYYNRSTSPWNLHRNEDPERYPSVIWEAKCRHQRCVNAEGKLDHHMNSVPIQQEILVLRREPPHCPNSFRLEKILVSVGCTCVTPIVHHVAHHHHH | – | – | – | – | – | – | IL-6 release from HT1080 cells, EC50 [2]: 2.36 nM |
| Antibody 7 IgG1 (antibody, V domains shown, human IgG1, lambda; constant regions not in the listing; also called Antibody 07) VH: not shown VL: NFMLTQPHSVSESPGKTVTISCTRSSGSLANYYVQWYQQRPGSSPTIVIFANNQRPSGVPDRFSGSIDSSSNSASLTISGLKTEDEADYYCQTYDPYSVVFGGGTKLTVL | 5 | 0.7 | – | – | – | – | HT1080 IL-6 release, IgG geometric mean IC50 (n = 12) (cynomolgus IL-17A [3]): 4.8 nM; HT1080 IL-6 release, IgG geometric mean IC50 (n = 15) [4]: 0.8 nM; chondrocyte IL-8 release, geometric mean IC50 at 2 nM IL-17A [5]: 1.6 nM; chondrocyte IL-8 release, geometric mean IC50 at 2 nM IL-17A [6]: 1.3 nM; cartilage explant synergised IL-6 response, Mean IC50 [7]: 0.61 nM; RA synovial fibroblast IL-8, Mean IC50 versus IL-17A (1 nM) and TNFα (0.1 ng/ml) [8]: 4.97 nM; RA synovial fibroblast IL-8, Mean IC50 versus IL-17A (2 nM) [8]: 2.85 nM; Kd [9]: 0.553 nM; Kd [10]: 0.195 nM; Kd (cynomolgus IL-17A [11]): 0.512 nM; Kd [12]: 0.171 nM; Kd [13]: 2.1 nM; Kd (cynomolgus IL-17A [14]): 1.34 nM |
| Antibody 1 scFv (scFv, V domains shown, scFv (one chain); also called TINA12) VH: not shown VL: NFMLTQPHSVSESPGKTVTISCTRSSGSLANYYVQWYQQRPGSAPTIVIFANNQRPSGVPDRFSGSIDSSSNSASLTISRLKTEDEADYYCQSYDDSSVVFGGGTKLTVL | – | – | 12 | – | – | – | HT1080 IL-6 release, scFv: % inhibition printed in the IC50 column (no IC50 reached) [4]: 70%; IC50 [15]: 12 nM |
| Antibody 12 IgG1 (antibody, V domains shown) VH: not shown VL: NFMLTQPHSVSESPGKTVTISCTRSSGSLANYYVQWYQQRPGSAPTIVIFANNQRPSGVPDRFSGSIDSSSNSASLTISRLKTEDEADYYCQTYDPYSVVFGGGTKLTVL | 4.2 | 2.1 | – | 2 | – | – | – |
| Antibody 5 IgG1 (antibody, V domains shown) VH: not shown VL: NFMLTQPHSVSESPGKTVTISCTRSSGSLANYYVQWYQQRPGSAPTIVIFANNQRPSGVPDRFSGSIDSSSNSASLTISRLKTEDEADYYCQSYNHKDIVFGGGTKLTVL | 39.7 | 1.4 | – | 28 | – | – | – |
| Antibody 3 IgG1 (antibody, V domains shown) VH: not shown VL: NFMLTQPHSVSESPGKTVTISCTRSSGSLANYYVQWYQQRPGSAPTIVIFANNQRPSGVPDRFSGSIDSSSNSASLTISRLKTEDEADYYCQSYSPHSVVFGGGTKLTVL | 13 | 0.8 | – | 16 | – | – | – |
| Antibody 10 IgG1 (antibody, V domains shown) VH: not shown VL: NFMLTQPHSVSESPGKTVTISCTRSSGSLANYYVQWYQQRPGSAPTIVIFANNQRPSGVPDRFSGSIDSSSNSASLTISRLKTEDEADYYCQSYDPHSVVFGGGTKLTVL | 4.9 | 2.2 | – | 2 | – | – | – |
| Antibody 4 IgG1 (antibody, V domains shown) VH: not shown VL: NFMLTQPHSVSESPGKTVTISCTRSSGSLANYYVQWYQQRPGSAPTIVIFANNQRPSGVPDRFSGSIDSSSNSASLTISRLKTEDEADYYCQSYSPTSVVFGGGTKLTVL | 7.3 | 0.9 | – | 8 | – | – | – |
| Antibody 9 IgG1 (antibody, V domains shown) VH: not shown VL: NFMLTQPHSVSESPGKTVTISCTRSSGSLANYYVQWYQQRPGSAPTIVIFANNQRPSGVPDRFSGSIDSSSNSASLTISRLKTEDEADYYCQSYSPHSVVFGGGTKLTVL | 9.2 | 2.3 | – | 4 | – | – | – |
| Antibody 6 scFv (non-germlined) (scFv, V domains shown, scFv (one chain)) VH: not shown VL: NFMLTQPHSVSESPGKTVTISCTRSSGSLANYYVQWYQQRPGSAPTIVIFANNQRPSGVPDRFSGSIDSSSNSASLTISRLKTEDEADYYCQSYSPSSVVFGGGTKLTVL | – | – | 1.7 | – | 136 | 31.2 | – |
| Antibody 8 scFv (scFv, V domains shown, scFv (one chain)) VH: not shown VL: NFMLTQPHSVSESPGKTVTISCTRSSGSLANYYVQWYQQRPGSAPTIVIFANNQRPSGVPDRFSGSIDSSSNSASLTISRLKTEDEADYYCQSYNHKDIVFGGGTKLTVL | – | – | 0.7 | – | 96.4 | 34.3 | – |
| Antibody 16 scFv (scFv, V domains shown, scFv (one chain)) VH: not shown VL: NFMLTQPHSVSESPGKTVTISCTRSSGSLANYYVQWYQQRPGSAPTIVIFANNQRPSGVPDRFSGSIDSSSNSASLTISRLKTEDEADYYCQTYDPYSVVFGGGTKLTVL | – | – | – | – | 249 | 13 | – |
| Antibody 14 scFv (non-germlined) (scFv, V domains shown, scFv (one chain)) VH: not shown VL: NFMLTQPHSVSESPGKTVTISCTRSSGSLANYYVQWYQQRPGSAPTIVIFANNQRPSGVPDRFSGSIDSSSNSASLTISRLKTEDEADYYCQSYDPTNQVFGGGTKLTVL | – | – | 2.5 | – | 99.5 | 36.7 | – |
| Antibody 15 scFv (non-germlined) (scFv, V domains shown, scFv (one chain)) VH: not shown VL: NFMLTQPHSVSESPGKTVTISCTRSSGSLANYYVQWYQQRPGSAPTIVIFANNQRPSGVPDRFSGSIDSSSNSASLTISRLKTEDEADYYCQSYSPTSVVFGGGTKLTVL | – | – | 1.6 | – | 159 | 21.7 | – |
| Antibody 11 scFv (scFv, V domains shown, scFv (one chain)) VH: not shown VL: NFMLTQPHSVSESPGKTVTISCTRSSGSLANYYVQWYQQRPGSAPTIVIFANNQRPSGVPDRFSGSIDSSSNSASLTISRLKTEDEADYYCQSYSPHSVVFGGGTKLTVL | – | – | 0.6 | – | – | 8.2 | HT1080 IL-6 release, scFv: % inhibition printed in the IC50 column (no IC50 reached) (cynomolgus IL-17A [3]): 20% |
| Antibody 2 scFv (non-germlined) (scFv, V domains shown, scFv (one chain)) VH: not shown VL: NFMLTQPHSVSESPGKTVTISCTRSSGSLANYYVQWYQQRPGSAPTIVIFANNQRPSGVPDRFSGSIDSSSNSASLTISRLKTEDEADYYCQSYDPHSVVFGGGTKLTVL | – | – | – | – | 99 | 16.2 | IC50 [17]: 0.7 nM |
| Antibody 13 scFv (non-germlined) (scFv, V domains shown, scFv (one chain)) VH: not shown VL: NFMLTQPHSVSESPGKTVTISCTRSSGSLANYYVQWYQQRPGSAPTIVIFANNQRPSGVPDRFSGSIDSSSNSASLTISRLKTEDEADYYCQSYDPRVVVFGGGTKLTVL | – | – | 1.6 | – | 147 | 35.9 | – |
